Laboratory results reported in the DeepSol protein solubility set.

experiment: soluble on expression in E. coli; label from the status in PepcDB or PDB records

Soluble on expression in E. coli, not soluble:
MGSDKIHHHHHHMALIEVQNLKKYFPVKQGPIDVLLRKPRKFVKAVDGVNFQIDEGKSLGLVGESGSGKTTTGRVILRLEEPTDGKIIFDGRDITKLSKEEMRKLRKEMQIIFQDPMASLNPYMRVGKAIEHALEIHGIGDRSSRKEMVLEMLRRVNLEPAEDIYRRYPRELSGGQRQRVVIARALILKPRLVVADEAVAMLDVSVRSQLLRLLQELRKEFNLTMLFITHDLATTKYVCDEIAVMYLGKIVEIGDFEDIYLNPKHPYTQALISAVPEPSLKKKKKFIPEGETPNPIDVPSGCRFHPRCPYRMDICMKEEPQLKAVEENHKVACHLYN
MGSDKIHHHHHHMALNKPKIVILGAGYGGLMTVTRLTKYVGPNDADITLVNKHNYHYETTWMHEASAGTLHHDRCRYQIKDVINQSRVNFVQDTVKAIKIDEKKVVLANGELQYDYLVIGLGAVPETFGIKGLKEYAFPIANINTSRLLREHIELQFATYNTEAEKRPDRLTIVVGGAGFTGIEFLGELAARVPELCKEYDVDRSLVRIICVEAAPTVLPGFDPELVDYAVHYLEENGVEFKIGTAVQECTPEGVRVGKKDEEPEQIKSQTVVWAAGVRGHPIVEEAGFENMRGRVKVNPDLRAPGHDNVFILGDSSLFMNEDTERPYPPTAQIAMQQGITVAKNLGRLIKGGELEEFKPDIKGTVASLGEHNAVGVVYGRKLKGTPASFMKKVIDNRSLFMIGGLGLTLKKGKFKFF
MGSDKIHHHHHHMANRLNQLLKQWLSQKDTQKWVLATIIETDGSSYRKAGAMMMINDLGQYFGLLSGGCLESDIMLQARRCWDSGRNRIVEYDMREEEDLAWKLGIGCGGMVRILLQPVDEANQYLQLDSLYALLESNQTAEYCQVINDQVPLNTLKTLTLKQAAPEQAKSIEGALKKADTDRKTETQQGVFKQYLKPAPHLAVFGGGVDARPVVAIATQLGWQVTLVDPRTSYARNGHFDNSVSVVRDAIESLEQNRWLQQIDMAIIMTHNIKLDAQSLALVQKSSAKYVGMLGPIHRTDRVLDLIPTTREQLVKPLANPVGLRLGGELPESIALSMLSEAHAFIEQQNGLSISGILRQ
MGSDKIHHHHHHMANSRKHLIYLVYGRQTYHQEALFSIASAFAHLRDGAAHGLTVRVYTDDPSPYAGLPVQVREVTAEELVAWCQPHGYHFRAKHVALRDALEEADQALLIDTDTFFHSSPLRLFDRIQPGSLLCNAIGARYGEHRNFPLYRDLSPYLFERGWADDEMHQLNSGVIGLPREEAKILDRSLELMDELYPIANGAYTLEEFVLAVAAHKRLELVGCTDLIHHYWSRKQLFRAKIQAWLCKHGSSLLSAAALDDTLKVTDRLPRPPRAKRLLYKLGTLPLPAPMRQFSIELLYGCHEYSNEFDRACGPVWWEKAATNAIERYPQEPIAEQIEDWLNHSLLRNLLGSRANEIRQHLRQRDLL
MGSDKIHHHHHHMAPASFSQITGQSVGKIGVLFLLLMVLWSANLCNSSDITPLSANRANVGQMVQAFTFDDLFKEDGPSSDLPQRVFRQTSSWRGFSQLEFAETIASPKHASKLRLRSELSNLGQLSPNVKWKLSARIDYDAIYDLSDFYSRQVRRDQRFELFLRENYLDFSIADFDVRVGRQHIVWGEMVGLFFADVVSAKDMREFVLPDFDILRIPQWAVRTEYSKNDFHADLIWIPFASLDEIGRPGADFYPFKLPVAAPVSFLKEDRSGRNVAHSNYGIRLSQLTNGWDVSAFYYHSLDATPTFHRISQPWEPLLFQARHGEIDQAGGTVTKDLGSAVLKGEFVYTHGRRFNVTRPTAADGLVRQDTIDYALGLDFTLPSDIRLNLQFFQRAYLNYDRDIFQDRLENGGSIFLQGDLWRDFQGQILLIHSFNRNEWMLRPRLTWNFARNWKLAAGADIFNGPPTGLFGRFDSSDRVYTELRFSF
MGSDKIHHHHHHMAPMKIGLILEGTYPYVTGGVSNWVHTLLTNLPEFEFEIYHLKAVTEPQTIKYKIPENVTAVHELNIFGDFESDSSQKANLESLERIVSQLSIERDIRSIVSFAIDFIRENAGKNVRKMLKTKGFWNILLKIYEEFFSERGLTEFYWMIMNLFLPVVNVLQFVPNRCDLFHVPSTGYASLVGMNGKFVHDVPLVITEHGIYHKEREREIILSTWVPDAYKPMWIELFRIISMIAYRVSDALTTLYRKNQIYQLELGADPEKMFIIPNGINVEEYDLPPEKHEGFVVGFVGRVARIKDLKTAIRAISIVKEVVGEKLTFLIIGPVDAEDYLAECKRLVRVLRLEDTVEFLGPQNVKEYYPKFDLLLLSSVSEGQPLVILEAMAAGVPIVATDVGACRDIIYDKDGQCGIVVPPKDHLSMSKAIIKLYEDKELRDTFSKNAKKVVQKYRVETMIEKYRNLYLSLTSKKTVSTV
MGSDKIHHHHHHMAQYSAEFKQAKVLVLGDVMLDRYWFGATNRISPEAPVPVVRVQENEERAGGAANVAMNIASLNVPVQLMGLIGQDETGSALSLLLEKQKIDCNFVALETHPTITKLRILSRHQQLLRLDFEEDFNNVDCKDLLAKLESAVKNYGALILSDYGKGTLKDVQKMIQIARKANVPVLIDPKGTDFERYRGATLLTPNMSEFEAVVGKCNTEEEIIEKGLKLISDIELTALLVTRSEKGMTLLRPNQEPYHLPTVAKEVFDVTGAGDTVISVLATALADGRSFEESCYLANVAAGIVVGKLGTSTVSTVELENAIHARPETGFGIMSEAELKDAVAQAKARGEKIVMTNGCFDILHPGHISYLENARKLGDRLIVAVNSDDSVKRLKGESRPINNLENRMAVLAGLASVDWLVPFTEDTPQRLIGEILPDLLVKGGDYKPEEIAGSKEVWANGGDVKVLNFENGCSTTNVIEKIKLLKD
MGSDKIHHHHHHMARIARVIATGIPHHVTQRGNRRMPTFFNDEDYRAYIALLGEWCRKCGVDIWAYCLMPNHVHLIAVPETDDGLRRGIGEAHRRYSRMINFRENWRGHLWQGRFASFPMDESYLLAAARYVEMNPVRARLTPKAALWPWSSARAHLDRMDDELVKVAPLLELVGDWSLFLAGTGEEDQLNDIRKHERTGRPLGTEEFVERLESALERPLKKGKPGPKGNDN
MGSDKIHHHHHHMARTTDRQRNTRSPRQARRQLNKLLRDPIVKPHNAAAVRIRLDEMMAILQHREYRPEQPSSTNQVNTHGQVQFDLARWYPEGGRLRYTLRPRGALLPIAFTVQDFGNHRKSLTRGLALAVAGAAHQLDQMKAANKLPLIMQPFSDWVHLLAIGLQNWLENGQVVFSLADLNGAYVLTSMPTAPATWLARLFGISLGNPDQSLTDLRRQRQEQADRLTTRLAAKFAIEEAPLVQAANDRAAKSIQLDAATMATLASDQAPLRSQKDVVDRLARGDYIVIDTEFVADRNQLDLTEISLLRVRHHQVDGAFDIFTQLPEDHHVMPFSVKITGITDDLLSQYGQPLPLAKAAVEQLLKHELVVGFALSNDLRALRAGLNVDITPVQAFDVAALARKTFGIGKKHTPSLQHYKEALGVDLPSHTALSDAQTTMALLEHLIWEGSPLITKDIGFEQRPPEHANDPEPYQKPDPSTS
MGSDKIHHHHHHMASPINESRIGYLYEAVRCGTVRAAADYLDVAPSAVSRQIALLEEELAIALVERNKRGVRPTEAGALLIEYFRQQRSHQGDLIAKLQEIRGLRRGTIAVVMGEGFASTMVSGPIKQYCEAYPEISITLDLCSTNEVMRRVSEDEAEIGLVFNPASDARIVSRVGSRQPMHAIVSPAFPLVGKVQSVTLRDMLPYPLALTHPEHGTRRLVDAAMLLEKVRLTPAITTNSATILKLFAKSNLGFTLLTPISIAAELAAGELVAIPVENRLLQSPEAHLVTRAGRQLSPAANRLLQRLTAQINQYAQYGSAS
MGSDKIHHHHHHMASSENTKNGNGGTLGFEAELFKAADKLRGNMEPSDYKHVALGLIFLKYISDAFEARHKALLAEDVRAAEDKDEYLADNVFWVPKEARWSHLQANAKLPAIGTLIDDAMRAIEKDNESLKGVLPKDYARPALNKVMLGELIDLISGIALNEEGDRSKDILGRVYEYFLGQFAGAEGKRGGEFYTPRSVVRVLVEMLEPYSGRVYDPCCGSGGMFVQSEKFVHEHGGRIGDIAIYGQESNYTTWRLAKMNLAVRGIDSDIRWNNEGSFHKDELRDLKADYVLANPPFNISDWGGDRLREDVRWKFGAPPVGNANYAWLQHIFHHLAPNGTAGVVLANGSMSSNQSGEGEIRRAMIEADAVDCMVALPGQLFYSTQIPACLWFLARNKNPGGGLRDRRGQVLFIDARKLGVLIDRTRRELNDDDIKRIADSYHAWRGEKEAGEYADVLGFCKSASLDEIRKHGHVLTPGRYVGAEAQADDGEPFDEVMRRLSAQWRAQQLEGQRVDDAIERNLRELGYGQ
